Assay [1] addresses Basigin (residues 22-205) (UniProt P35613). The assay is described as follows: SPR, RH5ΔNL (8 to 0.0625 µM) injected over immobilized basigin, 1:1 binding model; RH5ΔNL fragment (residues 140-526 lacking 248-296).
For assay [2] the target is unchanged. The assay is described as follows: not stated; given for comparison with the SPR value of RH5ΔNL; full-length RH5 (FLRH5).

pKd: −log10 of the molar value.

The substance “RH5ΔNL (PfRH5 fragment, 7G8 strain, residues 140-526 lacking residues 248-296, C-terminal hexa-histidine tag) (from UniProt Q8IFM5 140-526) (ligand)” gave a pKd in assay [1] of 5.89. The substance “full-length PfRH5 (7G8 strain), recombinant, C-terminal hexa-histidine tag (from UniProt Q8IFM5 24-526) (ligand)” gave a pKd in assay [2] of 5.96.

Usually pKd stands for the negative decadic logarithm of the Kd, by convention in mol/L. A lower pKd goes with a high Kd.

The values are drawn from US20170209558A1.
